According to US20240384250A1 (UAB RESEARCH FOUNDATION, published 2024):

T1: recombinant FGF23 protein (species not stated for the assay)
T1 construct: also called fibroblast growth factor 23
T1 sequence (Q9GZV9 25-251, species assumed, looked up): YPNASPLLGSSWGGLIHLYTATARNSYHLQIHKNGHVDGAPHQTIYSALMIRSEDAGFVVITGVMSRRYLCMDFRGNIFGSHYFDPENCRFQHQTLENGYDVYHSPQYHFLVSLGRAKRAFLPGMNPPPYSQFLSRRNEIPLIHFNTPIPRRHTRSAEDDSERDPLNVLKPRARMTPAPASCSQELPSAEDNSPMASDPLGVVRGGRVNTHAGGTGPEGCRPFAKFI

T2: Fc-tagged human FGFR4 ectodomain (human, UniProt P22455 22-369)
T2 construct: extracellular domain; Bought; also called Fc-FGFR4; not shown: Fc tag
T2 sequence (looked up): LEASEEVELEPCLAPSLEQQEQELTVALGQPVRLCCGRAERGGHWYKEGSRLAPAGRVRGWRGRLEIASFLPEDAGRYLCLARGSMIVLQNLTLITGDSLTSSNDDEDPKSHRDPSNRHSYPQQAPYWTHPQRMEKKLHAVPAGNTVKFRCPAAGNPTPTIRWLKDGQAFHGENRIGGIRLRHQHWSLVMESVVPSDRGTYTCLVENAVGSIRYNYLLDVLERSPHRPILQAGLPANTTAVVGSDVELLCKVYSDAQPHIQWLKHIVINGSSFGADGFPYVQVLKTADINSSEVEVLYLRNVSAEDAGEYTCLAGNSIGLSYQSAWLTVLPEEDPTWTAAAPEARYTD


How the values were obtained:
[1] = molecular target: T1, recombinant FGF23 protein (species not …); assay: plate assay: 100 ng FGF23 coated, 400 ng purified FLAG-tagged sKL-N694Q or wildtype, anti-FLAG-HRP (FIG. 25E)
Experimental: Plates were coated with 100 ng of FGF23 or 200 ng of FGFR1c and incubated with 400 ng of purified FLAG-tagged wildtype sKL or sKL-N694Q.

[2] = molecular target: T2, Fc-tagged human FGFR4 ectodomain; assay: pull-down: Fc-FGFR on protein A/G beads, then FGF21 with PBS, FLAG-sKL or heparin; Western blot with anti-FGF21
Experimental: To study the interaction between Fc-tagged FGFR isoforms (Fc-FGFR), FGF isoforms, and sKL, immunoprecipitation studies were conducted. Protein A beads (6501, BioVision) and protein G beads (6511, BioVision) were used at 25 μl of a 50% stock slurry per sample in a total bead volume of 50 μl. Beads were washed 5× in activity buffer (50 mM Tris [pH 7.4], 200 mM NaCl, 0.01% Tween 20). Bead spin-down assays were all performed for 2 minutes at 5000 g. Beads were resuspended in 1 ml of activity buffer in a 1.5-ml snap cap tube. One microgram of Fc-FGFR1 to 4 was incubated with the beads for 1 hour on a bead rotator. Control samples were incubated with 2 μg of anti-FGF antibody instead of Fc-FGFR. Beads were then pelleted at 5000 g for 2 minutes and washed 5× with activity buffer. Beads were resuspended and incubated with different combinations of 500 ng of FGF, 1 μg of sKL, 1.6 United States Pharmacopeia (USP) units of heparin, or phosphate-buffered saline (PBS). Beads were incubated for 1 hour on a tube rotator, and beads were pelleted and washed as before. One hundred microliters of 1× Laemmli sample buffer (1610737, Bio-Rad) with 1.42 M 2-mercaptoethanol was added, and samples were boiled for 5 minutes. Samples were analyzed using SDS-PAGE and Western blotting.

Binder	fold increase in FGF23 binding against the wildtype protein [1]	binding result [2]
FLAG-tagged sKL-N694Q (receptor, Human assignment as for m24; Tested in HEK293 media and as protein purified from supernatants; also called N6940 and sKL-N6940; not shown: C-terminal FLAG/His tag) EPGDGAQTWARFSRPPAPEAAGLFQGTFPDGFLWAVGSAAYQTEGGWQQHGKGASIWDTFTHHPLAPPGDSRNASLPLGAPSPLQPATGDVASDSYNNVFRDTEALRELGVTHYRFSISWARVLPNGSAGVPNREGLRYYRRLLERLRELGVQPVVTLYHWDLPQRLQDAYGGWANRALADHFRDYAELCFRHFGGQVKYWITIDNPYVVAWHGYATGRLAPGIRGSPRLGYLVAHNLLLAHAKVWHLYNTSFRPTQGGQVSIALSSHWINPRRMTDHSIKECQKSLDFVLGWFAKPVFIDGDYPESMKNNLSSILPDFTESEKKFIKGTADFFALCFGPTLSFQLLDPHMKFRQLESPNLRQLLSWIDLEFNHPQIFIVENGWFVSGTTKRDDAKYMYYLKKFIMETLKAIKLDGVDVIGYTAWSLMDGFEWHRGYSIRRGLFYVDFLSQDKMLLPKSSALFYQKLIEKNGFPPLPENQPLEGTFPCDFAWGVVDNYIQVDTTLSQFTDLNVYLWDVHHSKRLIKVDGVVTKKRKSYCVDFAAIQPQIALLQEMHVTHFRFSLDWALILPLGNQSQVNHTILQYYRCMASELVRVNITPVVALWQPMAPNQGLPRLLARQGAWENPYTALAFAEYARLCFQELGHHVKLWITMNEPYTRQMTYSAGHNLLKAHALAWHVYNEKFRHAQNGKISIALQADWIEPACPFSQKDKEVAERVLEFDIGWLAEPIFGSGDYPWVMRDWLNQRNNFLLPYFTEDEKKLIQGTFDFLALSHYTTILVDSEKEDPIKYNDYLEVQEMTDITWLNSPSQVAVVPWGLRKVLNWLKFKYGDLPMYIISNGIDDGLHAEDDQLRVYYMQNYINEALKAHILDGINLCGYFAYSFNDRTAPRFGLYRYAADQFEPKASMKHYRKIIDSNGFPGPETLERFCPEEFTVCTECSFFHTRKS	3 fold	
human FGF21 (ligand, UniProt Q9NSA1 29-209, looked up) HPIPDSSPLLQFGGQVRQRYLYTDDAQQTEAHLEIREDGTVGGAADQSPESLLQLKALKPGVIQILGVKTSRFLCQRPDGALYGSLHFDPEACSFRELLLEDGYNVYQSEAHGLPLHLPGNKSPHRDPAPRGPARFLPLPGLPPALPEPPGILAPQPPDVGSSDPLSMVGPSQGRSPSYAS		no binding (tested: 500 ng FGF21 (Methods paragraph 182))
